Columns and labels:
Type in all cases: in vivo
[1] = system: Arabidopsis thaliana T1 plants; assay: Mesotrione tolerance of transgenic Arabidopsis thaliana T1 plants (spray, bleached leaf area grade, damage score); set-up: Scores: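 damage score 0-100 computed as Σ(N×S)/(T×M)×100 over grades 0-3 with higher meaning more damage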; settings: Arabidopsis thaliana T1 plants; for Grade 0 (classification and statistics of the grade of pesticide damage; number of plants) / Grade 1 (classification and statistics of the grade of pesticide damage; number of plants) / Grade 2 (classification and statistics of the grade of pesticide damage; number of plants) / Grade 3 (classification and statistics of the grade of pesticide damage; number of plants): 16 plants
In short: (§1)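 Damage was assessed by bleaching grade (0 none; 1 <50%; 2 >50%; 3 100% of leaf area) one week after spraying. Sprays on 18-day-old T1 and wild-type plants used field-rate multiples: topramezone 25–200, isoxaflutole 35–280, mesotrione 52.5–420 g ai/ha.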

[2] = system: Arabidopsis thaliana T1 plants; assay: Topramezone tolerance of transgenic Arabidopsis thaliana T1 plants (spray, bleached leaf area grade, damage score); settings: 7 DAT, Table 4; for Classification and statistics of the grade of pesticide damage: Grade 0 / Classification and statistics of the grade of pesticide damage: Grade 1 / Classification and statistics of the grade of pesticide damage: Grade 2 / Classification and statistics of the grade of pesticide damage: Grade 3: number of plants; for Scores: pesticide damage score 0-100
In short: as §1

[3] = system: Arabidopsis thaliana T1 plants; assay: Isoxaflutole tolerance of transgenic Arabidopsis thaliana T1 plants (spray, bleached leaf area grade, damage score); set-up: Scores (pesticide damage): scale not given here; settings: spray, Arabidopsis thaliana T1 plants; for Classification and statistics of the grade of pesticide damage: Grade 0 (number of plants) / Classification and statistics of the grade of pesticide damage: Grade 1 (number of plants) / Classification and statistics of the grade of pesticide damage: Grade 2 (number of plants) / Classification and statistics of the grade of pesticide damage: Grade 3 (number of plants): 16 plants
In short: as §1

[4] = isoxaflutole 35 g ai/ha (0.5x field concentration)
[5] = isoxaflutole 70 g ai/ha (1x field concentration)

B1: ZmHPPD-02: nucleotide sequence encoding wild-type Zea mays HPPD; vector DBN11766 (nucleic acid)
DNA: ATGCCACCCACACCCACAGCAGCAGCGGCGGGCGCAGCGGTCGCAGCGGCGTCAGCGGCGGAGCAAGCGGCGTTCAGATTGGTTGGTCACCGCAACTTCGTGAGATTCAATCCTCGCTCAGATAGATTCCATACTCTGGCCTTCCACCATGTTGAGCTTTGGTGCGCTGATGCTGCTTCTGCTGCTGGAAGGTTCAGCTTCGGTTTGGGTGCTCCCCTCGCTGCTAGATCTGATTTGAGCACTGGTAACTCAGCACATGCTTCCCTCCTGCTTAGATCTGGCTCTCTGAGCTTCCTTTTCACTGCTCCATATGCTCATGGTGCTGATGCTGCTACAGCTGCTCTCCCTTCATTCTCCGCTGCTGCTGCTAGGAGATTCGCTGCTGATCACGGATTGGCTGTGAGGGCTGTTGCACTTAGAGTTGCTGATGCTGAGGAGGCCTTCCGCACCTCTGTTGCTGCTGGAGCCAGACCAGCTTTCGGACCTGTTGATCTCGGAAGGGGTTTCCGCCTGGCTGAGGTGGAGCTTTACGGCGATGTGGTTCTGCGCTACGTTAGCTATCCTGATGGTGCTGCTGGTGAACCTTTCCTTCCAGGATTCGAGGGTGTGGCCTCACCAGGTGCCGCTGATTACGGCCTGTCCAGATTCGACCACATTGTTGGAAATGTTCCTGAGCTTGCTCCAGCTGCTGCCTACTTCGCTGGCTTCACCGGATTCCATGAGTTCGCCGAGTTCACCACTGAGGATGTGGGAACTGCTGAGTCTGGTTTGAATAGCATGGTGCTCGCCAACAATTCAGAGAACGTTTTGCTCCCTCTGAATGAGCCCGTGCACGGAACAAAGAGAAGGTCCCAGATTCAAACCTTCTTGGATCACCACGGCGGCCCAGGTGTTCAGCATATGGCTCTCGCCTCCGATGACGTGTTGAGAACCCTCAGGGAGATGCAAGCCAGGTCTGCTATGGGTGGCTTCGAGTTCATGGCCCCACCTACAAGCGATTACTATGATGGTGTGCGCAGAAGGGCTGGCGACGTTCTTACCGAGGCTCAGATCAAGGAGTGCCAAGAGCTGGGCGTGCTTGTTGATAGAGATGACCAGGGAGTTCTGCTTCAAATTTTCCCCAAGCCAGTGGGCGACAGGCCTACTTTGTTCCTCGAGATTATCCAGAGAATCGGATGCATGGAGAGGGATGAGAAGGGTCAGGAGTACCAAAAGGGAGGTTGCGGCGGATTCGGCAAGGGAAATTTCTCACAACTCTTCAAGTCCATCGAGGACTATGAAAAGAGTCTGGAAGCGATGCAGGCAGCAGCAGCAGCAACCGCACAGGGGTCGTGA
modifications: ZmHPPD-02 Nucleotide Sequence
notes: vector DBN11766
B1 was tested, and the Resistance evaluation ([1]; mesotrione 52.5 g ai/ha) was “Non-resistant”, the Scores ([1]; mesotrione 52.5 g ai/ha) was 100 and the “Grade 0 (classification and statistics of the grade of pesticide damage; number of plants)” value ([1]; mesotrione 52.5 g ai/ha) was 0. The “Grade 1 (classification and statistics of the grade of pesticide damage; number of plants)” value ([1]; mesotrione 52.5 g ai/ha) was 0, the “Grade 2 (classification and statistics of the grade of pesticide damage; number of plants)” value ([1]; mesotrione 52.5 g ai/ha) was 0 and the “Grade 3 (classification and statistics of the grade of pesticide damage; number of plants)” value ([1]; mesotrione 52.5 g ai/ha) was 16. The Resistance evaluation ([1]; mesotrione 105 g ai/ha) was “Non-resistant”, the Scores ([1]; mesotrione 105 g ai/ha) was 100 and the “Grade 0 (classification and statistics of the grade of pesticide damage; number of plants)” value ([1]; mesotrione 105 g ai/ha) was 0. The “Grade 1 (classification and statistics of the grade of pesticide damage; number of plants)” value ([1]; mesotrione 105 g ai/ha) was 0, the “Grade 2 (classification and statistics of the grade of pesticide damage; number of plants)” value ([1]; mesotrione 105 g ai/ha) was 0 and the “Grade 3 (classification and statistics of the grade of pesticide damage; number of plants)” value ([1]; mesotrione 105 g ai/ha) was 16. For the same molecule, the “Classification and statistics of the grade of pesticide damage: Grade 0” value ([2]; topramezone 25 g ai/ha (1×)) was 0, the “Classification and statistics of the grade of pesticide damage: Grade 1” value ([2]; topramezone 25 g ai/ha (1×)) was 0 and the “Classification and statistics of the grade of pesticide damage: Grade 2” value ([2]; topramezone 25 g ai/ha (1×)) was 0. For the same molecule, the “Classification and statistics of the grade of pesticide damage: Grade 3” value ([2]; topramezone 25 g ai/ha (1×)) was 16, the “Classification and statistics of the grade of pesticide damage: Grade 0” value ([2]; topramezone 100 g ai/ha (4×)) was 0 and the “Classification and statistics of the grade of pesticide damage: Grade 1” value ([2]; topramezone 100 g ai/ha (4×)) was 0. For the same molecule, the “Classification and statistics of the grade of pesticide damage: Grade 2” value ([2]; topramezone 100 g ai/ha (4×)) was 0, the “Classification and statistics of the grade of pesticide damage: Grade 3” value ([2]; topramezone 100 g ai/ha (4×)) was 16 and the Scores ([2]; topramezone 25 g ai/ha (1×)) was 100. The Scores ([2]; topramezone 100 g ai/ha (4×)) was 100, the Resistance evaluation ([2]; topramezone 25 g ai/ha (1×)) was “non-resistant (non-resistant plants (scores 68-100))” and the Resistance evaluation ([2]; topramezone 100 g ai/ha (4×)) was “non-resistant (non-resistant plants (scores 68-100))”. The Resistance evaluation [3, 4] was “Non-resistant”, the “Scores (pesticide damage)” value [3, 4] was 100 and the “Classification and statistics of the grade of pesticide damage: Grade 0 (number of plants)” value [3, 4] was 0. For the same molecule, the “Classification and statistics of the grade of pesticide damage: Grade 1 (number of plants)” value [3, 4] was 0, the “Classification and statistics of the grade of pesticide damage: Grade 2 (number of plants)” value [3, 4] was 0 and the “Classification and statistics of the grade of pesticide damage: Grade 3 (number of plants)” value [3, 4] was 16. For the same molecule, the Resistance evaluation [3, 5] was “Non-resistant”, the “Scores (pesticide damage)” value [3, 5] was 100 and the “Classification and statistics of the grade of pesticide damage: Grade 0 (number of plants)” value [3, 5] was 0. For the same molecule, the “Classification and statistics of the grade of pesticide damage: Grade 1 (number of plants)” value [3, 5] was 0, the “Classification and statistics of the grade of pesticide damage: Grade 2 (number of plants)” value [3, 5] was 0 and the “Classification and statistics of the grade of pesticide damage: Grade 3 (number of plants)” value [3, 5] was 16.

Source: patent US20250043302A1, “MUTATED HYDROXYPHENYLPYRUVATE DIOXYGENASE POLYPEPTIDE, AND CODING GENE AND USE THEREOF” (BEIJING DABEINONG BIOTECHNOLOGY CO., LTD., priority 2021, published 2025)
